Test results: the supplement of paper PMC12636428

Test system: Saccharomyces cerevisiae
Assay: transcriptional activation domain activity (GFP:mCherry ratio, weighted mean of sorted bins, harmonized to initial dataset scale) (arbitrary fluorescence ratio units); higher = stronger transcriptional activation
Conditions: beta-estradiol 1 µM; induction time 4 h
Outline: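 Values are activation activity, found as the read-weighted mean of bin median fluorescence, averaged across barcodes and then mapped linearly onto the initial dataset scale. Barcoded protein tiles fused to an estradiol-inducible synthetic transcription factor were integrated at the URA3 locus of GFP-reporter yeast diploids. Cells were induced for 4 hours at 30 °C with 1 uM beta-estradiol in SC, sorted into 8 bins by GFP:mCherry ratio, and barcode-sequenced, with tiles under 50 reads discarded.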

| Sequence | transcriptional activation domain activity |
| --- | --- |
| SSSSRGKGGKEKGKGKVAGEGDGDGEEEQGEQQQQQQTSLVEAVARARDACRL | 27200 |
| QELCRTANITYHRTSYPVVHRHLFSTPSLQRLMTWLKELPYQVAFQVELLVRG | 49100 |
| MRIFVFFSLLFLFFFCYMYYICLLLFCTLQTYIFILYHIIPYSILIYIYYISN | 59200 |
| EFEVDSIDELVLILKESEQSDMLRRIGYCRKRMMSLLRLLVTKVDVVKTITKR | 38100 |
| EQRAEGVGERRGEGGGEAQRDGAADARRHERAAEGPVRHGERRREVQEGVQGV | 23500 |
| VRVLNQLKLLLYCTLLSPVYAFKPYRNLYYTFLRKNLLGVVGGYNCAGHNLAI | 55500 |
| KLLCVGRPFRASSTEVVVTMALLSMLRHLPTTRWKDSLKLLAWVLEQYIYRFT | 51000 |
| VLAMVAQIRTGLWLLHYRDFMLRELCYDQDLYILQTALIILEPDLVFLLQFFE | 33500 |
| SASSKNGDKPKTVRKKGGEPEVSKESTPKPRTTARNRKGAKQEEAKNKTITGR | 41300 |
| AGQLGYDPVFGICWYNNSDPAMKLRWMLGSQLFWLLFMSTSEVVFFLVLVCFM | 43500 |
| RLCPRLGLVELFFKNSAELSKVLKALGAAAATTLCTVVFPGYSHRLSFLQWYP | 62400 |
| YGLIYSILLHLCAVFISSLRRLTVLRELLRMLFLFSCFWFAVSISYMSVLYTI | 49300 |
| EVVLLPDLCGFCCFSMRFVVLLDLIGTLTLPVTACYLVYLIYVIASGNGPFPL | 46800 |
| STRNYKLYIGNTVFFCGGRFLTSRAFWAFGLSLFLINMPAILFIIFSCPWLWY | 55900 |
| MFFILASFSYYYYTHHISLDKVGNFLCRFIHPVFLCSIFIFPFLLYLFKIIYY | 39100 |
| INGLFMLLLVYYLTLYHLARCLGYSVLSYLAHFIRFDGFCPLLHTCAGLLFSS | 42300 |
| EGSSSGEEESSEEEEAAPRREDAAAARQKAADEMIEEQIKRDLAARAAGKKHW | 30100 |
| NWYKHINWLNTFFVVIMPMLGFIAAYWVPLHRYTALFAIFYYVHCGLGITAGY | 68500 |
| YASVLSLIMFFPLPFLSGEILDISRNCYILDVFFHWLMVVCGGLGSWAVFWST | 78700 |
| AAQAPANDGFSEVQHNRGGRGRGGQDQGEGRGGYRGRGRGGRGGGEFRGRGRG | 55800 |
| EGKPVAAEGVKDSWDASSDEEGSNPAPAPAPAAKAKPSQKANGTHVPISESQT | 40500 |

| Sequence | transcriptional activation domain activity |
| --- | --- |
| EIAEGDEAEAARPAKIPRKPRRKKAVEGEGANEEGGAAPPRPKRKRKTKSKSA | 42100 |
| VALPCSFRGLLRFACVTWLKHLFGLISRVLDFQAWWGVQLHCLFLLGLMLLPP | 63500 |
| ALNWYFLGTTMYFLYGESVIYYFKHILLVDRIFLPLATHHRFISFMLYILGFV | 66300 |
| GVLRLFQICLPCFAAVDFVQGFVRYLYHIPNFNGVYETKMWVWVGLIICLIFK | 53900 |
| VLAGYVVHVFGGDYFHSFSMTFFTFIWTLLFMGYIFITRDYIPKCYFYWLHIA | 54600 |
| SLSVVLLHMRHRRLLFSVVMILFIFWMLYVGHCMLYVLLLLRVLLLSLHLWIV | 31700 |
| QVKAKTARKSSRAATKKSSAKRRRDESSEESSDEDESGGERVSRGRGGAVRDK | 36000 |
| GDEKLAKGRGDEKPAKGKGKEKKAKAKGKKAKGEKKAEDKENAVKESLENAVK | 32800 |
| SSGGGSTSESESESESEIEEDESKGEREGEGEKEKKKKKKKKGEEKAQHARRD | 31700 |
| MIPSYLSHGRAAIIAIRLVLALYFFWHPLVLFLSSLKLITPCICLHLLFAFWI | 62500 |
| MQWAGLMFFRCSICLLAFSVILMFGLVWYFFALCVVNRLSTICFVFWMLLSFL | 42700 |
| LVAFGMRFGGPTLLKLYFLPWMACHLIFALVPVIITLPMQWANHWIVALTYLH | 57900 |
| CIIIVFIIRFLVLDLIGMFVCIYWVSFLFYFILFYFISRMVLHRVFFFFSFLI | 49700 |
| VRTVIESNRRLNLAVVSKSQRWRCSKIWIPGLLMHVFNFWCIVYMITFNAVWD | 49800 |
| AAAVAAKKPEEKKEETPAEAATEAPKEEAKEEKKEEKAATKSRSQSRKRTSIF | < 6570 |
| ERKRKREMAGEDDGRAEAKKVKKEKKEGEKEREKKGKKERKGKKEKEKRKKDM | 16800 |
| SPSSGLNINFFYHEVLMVLSLFNSMTRPDVMRWYAKTRFYHIVNLTAWQIYPC | 57400 |
| PRLFPIASHLFFSLPHAKCCYPYLLLLLFPLLPLPFSLLVFCNLIFFFFFLFF | 41300 |
| GYCLKIRDRFFIFLWHCWVRGIVVTPFGSKIISGLSFESIPQSSCVLIQNVTI | 28400 |
| DKQLDYEFIDKSGIIPSDNQSHPRISNIHDNAIDMVTLKNGEEVAISWYDISH | 59800 |
| MLRTWVLLLLVGLLGVFVRADDEPASEEPKSGGLSLSRLSQLVTSGVTGARPP | 39300 |

| Sequence | transcriptional activation domain activity |
| --- | --- |
| MSQCLGTGYPIVCLVLICVRHGAMLDIREKAVEMIFTILLTSTVKVAKKLDKH | 49500 |
| YRISLAILQLCKDHLLQSCPTNSEILAFLLHIPHDYLTADVLLDTAFHIKLSK | 54000 |
| MWCTRWVLPFLLLPAPTSPPYFVLIFLLSLVMHARPCIYCIFFLIMLFITSNY | 47000 |
| YMYLVIVVTFLSILKTSQAIAVVWVQNVLFFANPDIARTLLNIAWWQNSVTLM | 54800 |
| RDMLIDTYLTPENLYDVHGPGVPVKTLEIATALVDIVGQYDHNMKLEAWNVLH | 50000 |
| RGKVVSRLRKVLQKTSFKPTRSLTDHWTWNEIAILIRFVLMLSFNNRGPVKSY | 43200 |
| DRLSLRFTLAISLTDVIRAIAILIYSHFQVDDWRCSLLSFSLYWLTLLYLFLT | 25300 |
| ASDYAIGQFRYLKRLILVHGEWSYARNANMIVNFFYKNILGIGVLWWFQIYCG | 39100 |
| ELKEGDPKVCAGKAVNEKGEVVDKDGNVIGKVDVVPGEAAFEAMKALKERLGE | < 6570 |
| GIPDELAWMLCLDGLDCIDGETYNLPLLRQFMELFPSLPLTSLLTAYFLYMDI | 119000 |
| RDEAGGGARRESKKAGARRGRTAEKRGGRGHEGRRQEGGKATKAEGGAEGEGE | 46500 |
| LPGGKYLFMVMKNNGGGSEKFALVLFDVEAQMTLLKASRILLLRARYITPKTT | 51400 |
| FGASLPVFWKVIFHHCQLYFLVIVSTKAILVFTIYALEFPYSVMFIICHLVLV | 37700 |
| SNAAWGVMITFFQIIGLFDKYPIYWDSRLGDVVKAVSITILNTDYINLQCAYG | 73900 |
| MMKTLAQMYPLASFSLFQGLKFFILLALMNECLLLCTALRRWLICTQLPGIYF | 49200 |
| APATTAAATTSATPAVTSTLLAKPATTTTSTATPAPAAAGSLFGGAKAAGTTA | 37000 |
| QHKKRRAEQAGRGEKAEADGSQARRKAEDRREEQQRAKQSAGQKEQEKVKAEQ | 56000 |
| SLLLNDFSELRNGYFTSLFSLSLFLFLFAMPWTLTDITPFLMVLLFYHILFFI | 69600 |
| SERSERRADERSSRNGPSEAERGSERERGGREKRGGDRESSRRERERGGEARE | 17200 |
| SVSRDRGAFEWAGDNLMTVFCQPYRLVDPEMWCLLYDVLRFNACCRSIIATPY | 63900 |
| LYIVRLRFVHHFRINTAFVEACQLSIPPFVSVSLVSLAIAVFLNCVGHHFAAF | 39400 |

| Sequence | transcriptional activation domain activity |
| --- | --- |
| GWKYIILAACDVEGNFLVVKVGLFSTTILLVMTLRYQAYQYTNLLSCMLLDAW | 43000 |
| CLHFQFSLLFLLCLYVCVGWIFYACILSYLPPLLFIVSFVTILQRTAFCFGEE | 45000 |
| STALRTWPGLMYLSMYNFRAIKSLVASLMLPNQQARDIIIVLLYSLLRIKSPA | 65100 |
| VCFMGVLIGLLPGTWLCYGSDVCVKGLSSSIISMQLGLLGSLLLILKLVIGVA | 61700 |
| RAYGCEAAFITVLQEKINHYTRCARVFYNLNRWVAVRLELLSSLFTTALAAYL | 63400 |
| LRPGRQAQRRHVLALQARPALLLPPDLDARAVQPAHRQPQGPEEGGRAGPARP | 15100 |
| CRLLSSSVFLFSFFPFFLFFFYCLLVFFAWFLILRGCFVVHCLCKFGYDWTGG | 30300 |
| AKGEAEPKAKAKGKGKAKAQAESEGEEEEEEEEEEEVKGKGKSRAKSKPKAKA | 53900 |
| FAGAFKHFQRLGPVSQWDLLAKLPLIVFWILFTCCSLHFYLLFLFLFFIRWVS | 55200 |
| PKVLYILARYLGIIYISLFLGLRWSHFPIFVMKVNNLAYFVNALLYYTWIIIT | 33800 |
| AAEEEDEEAKPLPAKKKRSSKKRKAEDAAEPEEKPAAKKKTAKVSGRGKKAAD | 16300 |
| ADAAGEPAQANGESKSAKRRKQKKAAAAAKAAGATNADGTPAAAAEKPARAQR | 17100 |
| FGLFGPLDFLDFLDLWTFWTFWTLNFLDFWTFGLFGLLALDLDFLDFLDFLDL | 57800 |
| GEIVQIDLPLYGKSGQNRGKAALEYSDSLSAQKAASHMTGGQIDGAVVKVELS | 66000 |
| PNIHSLHSLYTFRFLHIHSFHNLFFLPFFYFLYSLCFLHLPCFLSFLRFLHLL | 63900 |
| TIHHLKDSRSSSWTVAIDNNSNNNKVSDNQPDFVDFQELLDNDTLGNDLLETT | 61400 |
| GPFQSSAQVDGTLDGDLLQELLIAFLSRKKRFVVWKVMKVLFATLLKRMGAHD | 55600 |
| TSAAPAFGTSGFSAAKPATPAQASAFGSPAALGAKASPWGAQNSSSSGTTAGA | 31100 |
| YKNLSKYPIVKSAVALISLVQSLCRTMHSMPFHTEEYIRMIEVVLLKYYEKCY | 34300 |
| LLYLCRDILMAVFAWSLAIQIDPFFTNVVIRSILSPTIAKTFRWMSWCVYWWF | 57700 |
